According to paper PMC11046469, “Leveraging a Phage-Encoded Noncanonical Amino Acid: A Novel Pathway to Potent and Selective Epigenetic Reader Protein Inhibitors” (ACS Central Science, 2024):

target: T1, ENL YEATS domain (AviSUMO-ENL YEATS) (Homo sapiens, UniProt Q03111); assay: Phage panning of BuK-containing 7-mer library against AviSUMO-ENL YEATS with Illumina NGS abundance; conditions: sheet ENLR3: round 3 of panning against ENL YEATS; TAG = amber codon (BuK); 7-mer library positions V1-V7
T1 construct: encoding ENL YEATS (aa 1−148) was cloned in pET28a-; made in house; host or cells: E. coli BL21(DE3pLysS), co-expressed with BirA (pBirAcm)
T1 sequence (Q03111 1-148): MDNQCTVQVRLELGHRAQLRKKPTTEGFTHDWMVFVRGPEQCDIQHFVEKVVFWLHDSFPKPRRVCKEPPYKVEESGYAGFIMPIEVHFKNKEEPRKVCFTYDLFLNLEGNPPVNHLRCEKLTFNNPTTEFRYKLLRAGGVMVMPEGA
Procedure, shortened: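 Phage displaying BuK-containing amber-obligate 7-mer peptides, made with 5 mM BuK, was panned against biotinylated AviSUMO-ENL YEATS on streptavidin beads with washes of rising stringency. Rounds 1 and 3 were sequenced by Illumina NGS, and sequences with mismatches were filtered out before copy-number abundance was counted.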

Row | Substance | n (number of NGS reads of the unique amino acid sequence) | percent (share of sequence reads) [%]
1 | SWILWTAGG | 8 | 0.007285
2 | SWYITFTAG | 79 | 0.07194
3 | TAGCGPRTAGD | 3 | 0.002732
4 | TAGTLWNVG | 2 | 0.001821
5 | TAGTVTFWY | 3 | 0.002732
6 | TAGVMSLYS | 2 | 0.001821
7 | TAGWIIETAGG | 6 | 0.005464
8 | TAIFCYTAG | 3 | 0.002732
9 | VYCYTAGVW | 3 | 0.002732
10 | WCGPRTAGD | 2 | 0.001821
11 | WCIIETAGG | 19 | 0.0173
12 | WFILYTAGD | 25 | 0.02277
13 | WLIIETAGD | 2 | 0.001821
14 | WLIIETAGG | 30 | 0.02732
15 | WNCLYTAGD | 4 | 0.003642
16 | WQDTTAGTY | 2 | 0.001821
17 | WRIIETAGG | 9 | 0.008196
18 | WSIIETAGG | 3 | 0.002732
19 | WTAGIIETAGG | 4 | 0.003642
20 | WTVYCYTAG | 3 | 0.002732
21 | WWIIDTAGG | 29 | 0.02641
22 | WWIIEKG | 2 | 0.001821

Row | Substance | n (number of NGS reads of the unique amino acid sequence) | percent (share of sequence reads) [%]
23 | WWIIEQG | 2 | 0.001821
24 | WWIIETAGD | 23 | 0.02094
25 | WWIIETAGE | 10 | 0.009106
26 | WWIIETAGG | 33339 | 30.359
27 | WWIIETAGR | 6 | 0.005464
28 | WWIIETAGV | 16 | 0.01457
29 | WWIIETAGW | 27 | 0.02459
30 | WWIIEWG | 3 | 0.002732
31 | WWIIEYG | 29 | 0.02641
32 | WWIIGTAGG | 6 | 0.005464
33 | WWIIKTAGG | 9 | 0.008196
34 | WWIITAGTAGG | 19 | 0.0173
35 | WWIIVTAGG | 4 | 0.003642
36 | WWIVETAGG | 6 | 0.005464
37 | WWTIETAGG | 2 | 0.001821
38 | WWVAGPTAG | 70 | 0.06374
39 | WWVFDATAG | 10 | 0.009106
40 | WWVIETAGG | 4 | 0.003642
41 | YAIYCYTAG | 7 | 0.006374
42 | YDAYCYTAG | 11 | 0.01002
43 | YDDYCYTAG | 2 | 0.001821
44 | YDFYCYTAG | 51 | 0.04644

same assay, conditions: sheet ENLR3: round 3 of selection against ENL YEATS; TAG = amber codon (BuK)

Row | Substance | n (number of NGS reads of the 7-mer sequence V1-V7) | percent (share of NGS reads of the 7-mer sequence V1-V7) [%]
45 | SWSITFTAG | 1 | 0.0009106
46 | TAGAFFCIL | 1 | 0.0009106
47 | TAGCGPRYD | 1 | 0.0009106
48 | TAGDVYCYTAG | 1 | 0.0009106
49 | TAGGSWVPI | 1 | 0.0009106
50 | TAGKDQLWN | 1 | 0.0009106
51 | TAGMVHIMV | 1 | 0.0009106
52 | TAGNVCGTV | 1 | 0.0009106
53 | TAGSFLYSF | 1 | 0.0009106
54 | TAGSGVASC | 1 | 0.0009106
55 | TAGSSIITC | 1 | 0.0009106
56 | TAGTYYVCR | 1 | 0.0009106
57 | TAGVFALVI | 1 | 0.0009106
58 | VATAGMWPC | 1 | 0.0009106
59 | VWVSTAGMT | 1 | 0.0009106
60 | WCFMVFL | 1 | 0.0009106
61 | WFIYTAGGC | 1 | 0.0009106
62 | WLAWRHL | 1 | 0.0009106
63 | WWFIETAGG | 1 | 0.0009106
64 | WWIFETAGG | 1 | 0.0009106
65 | WWIIATAGG | 1 | 0.0009106
66 | WWIIELG | 1 | 0.0009106
67 | WWILETAGG | 1 | 0.0009106
68 | WWINETAGG | 1 | 0.0009106
69 | WWITETAGG | 1 | 0.0009106
70 | WWVLVTAGS | 1 | 0.0009106
71 | YAVYCYTAG | 1 | 0.0009106
